Values of other authors in article PMC5401657.

Target: integrin αvβ3 (Homo sapiens) (UniProt P06756)
Test: SPR

Chain of UniProt P06756 (P06756 31-992, chain 1 of 2): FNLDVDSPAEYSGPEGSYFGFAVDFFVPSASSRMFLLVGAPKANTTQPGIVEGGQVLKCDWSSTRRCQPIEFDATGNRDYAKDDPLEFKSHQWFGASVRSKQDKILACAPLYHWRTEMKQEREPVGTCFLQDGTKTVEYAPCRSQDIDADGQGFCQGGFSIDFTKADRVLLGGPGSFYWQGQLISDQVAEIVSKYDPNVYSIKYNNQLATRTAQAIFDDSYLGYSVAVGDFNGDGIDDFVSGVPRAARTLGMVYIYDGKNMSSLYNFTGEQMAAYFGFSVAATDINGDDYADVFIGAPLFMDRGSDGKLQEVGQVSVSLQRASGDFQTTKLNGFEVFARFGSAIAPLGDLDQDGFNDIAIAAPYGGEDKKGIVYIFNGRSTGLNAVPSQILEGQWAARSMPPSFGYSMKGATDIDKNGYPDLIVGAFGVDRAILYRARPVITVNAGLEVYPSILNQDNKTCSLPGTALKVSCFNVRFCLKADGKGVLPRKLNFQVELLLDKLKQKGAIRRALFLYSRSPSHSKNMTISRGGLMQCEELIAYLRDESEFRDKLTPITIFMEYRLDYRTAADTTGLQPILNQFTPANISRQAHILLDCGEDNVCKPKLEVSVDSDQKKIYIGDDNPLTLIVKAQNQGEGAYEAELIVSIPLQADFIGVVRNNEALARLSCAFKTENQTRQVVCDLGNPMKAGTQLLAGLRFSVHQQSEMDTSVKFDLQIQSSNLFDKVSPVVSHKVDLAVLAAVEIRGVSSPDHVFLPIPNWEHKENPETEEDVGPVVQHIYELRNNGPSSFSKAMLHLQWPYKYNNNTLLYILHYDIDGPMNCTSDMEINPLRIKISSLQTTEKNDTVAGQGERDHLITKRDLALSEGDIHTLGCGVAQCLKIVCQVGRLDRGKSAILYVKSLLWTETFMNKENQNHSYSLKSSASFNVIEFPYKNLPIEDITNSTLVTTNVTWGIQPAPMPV
Chain of UniProt P06756 (P05106 27-718, chain 2 of 2, further chain): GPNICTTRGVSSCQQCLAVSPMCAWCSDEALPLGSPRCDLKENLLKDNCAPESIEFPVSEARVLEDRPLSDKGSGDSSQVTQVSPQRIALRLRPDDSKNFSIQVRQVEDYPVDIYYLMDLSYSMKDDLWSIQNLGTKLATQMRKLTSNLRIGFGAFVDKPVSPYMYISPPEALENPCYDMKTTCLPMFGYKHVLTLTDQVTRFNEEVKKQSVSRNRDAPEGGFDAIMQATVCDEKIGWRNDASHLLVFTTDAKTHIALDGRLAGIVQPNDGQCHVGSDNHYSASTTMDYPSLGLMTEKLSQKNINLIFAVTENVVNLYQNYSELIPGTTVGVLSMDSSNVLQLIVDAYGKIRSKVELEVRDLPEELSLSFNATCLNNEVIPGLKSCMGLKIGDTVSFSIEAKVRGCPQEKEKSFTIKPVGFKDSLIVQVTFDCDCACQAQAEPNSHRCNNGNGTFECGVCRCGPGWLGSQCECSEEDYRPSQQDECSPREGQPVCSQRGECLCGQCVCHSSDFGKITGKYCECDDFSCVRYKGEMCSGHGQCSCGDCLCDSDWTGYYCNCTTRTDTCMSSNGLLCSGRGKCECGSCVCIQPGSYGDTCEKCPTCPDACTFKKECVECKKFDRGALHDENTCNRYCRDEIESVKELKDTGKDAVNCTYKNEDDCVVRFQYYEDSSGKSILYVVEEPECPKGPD

In the case of IGF1 (from UniProt P05019), the Kd is listed as 500 nM.
